According to US20230302116A1:

Columns and labels:
[1] = target: nAb1 (Active Motif 91349), human anti-spike neutralizing antibody; experiment: Octet BLI, target on AHC sensor, spike as analyte
[2] = target: nAb2 (Active Motif 91361), human anti-spike neutralizing antibody; experiment: Octet BLI, target on AHC sensor, spike as analyte
[3] = target: nAb3 (Absolute Antibody Ab01680-10.0), human anti-spike neutralizing antibody; experiment: Octet BLI, target on AHC sensor, spike as analyte
[4] = target: nAb1 (Active Motif 91349), human anti-spike neutralizing antibody; experiment: repeat Octet BLI, target on AHC sensor, spike as analyte
[5] = target: nAb2 (Active Motif 91361), human anti-spike neutralizing antibody; experiment: as above
[6] = target: nAb3 (Absolute Antibody Ab01680-10.0), human anti-spike neutralizing antibody; experiment: as above

SPN-C52H8 (SARS-CoV 2 Spike protein with His Tag, Acro Biosystems) (from UniProt P0DTC2 14-1213)
kon [1]: 75400 M⁻¹ s⁻¹ | kon [2]: 115000 M⁻¹ s⁻¹ | kon [3]: 34300 M⁻¹ s⁻¹ | kon [4]: 18400 M⁻¹ s⁻¹ | kon [5]: 54300 M⁻¹ s⁻¹ | kon [6]: 11300 M⁻¹ s⁻¹
